Measured values from doi:10.1101/2023.12.11.571162 (2023).
Blank lines part the entries; values can stand above or below the binder they belong to.

Tests used:
Experiment in all cases: BLI
8D1 = target: 8D1
39G7 = target: 39G7
anti-LHFPL5 = target: anti-LHFPL5

Chain of 8D1 (Q99PJ1 27-1943): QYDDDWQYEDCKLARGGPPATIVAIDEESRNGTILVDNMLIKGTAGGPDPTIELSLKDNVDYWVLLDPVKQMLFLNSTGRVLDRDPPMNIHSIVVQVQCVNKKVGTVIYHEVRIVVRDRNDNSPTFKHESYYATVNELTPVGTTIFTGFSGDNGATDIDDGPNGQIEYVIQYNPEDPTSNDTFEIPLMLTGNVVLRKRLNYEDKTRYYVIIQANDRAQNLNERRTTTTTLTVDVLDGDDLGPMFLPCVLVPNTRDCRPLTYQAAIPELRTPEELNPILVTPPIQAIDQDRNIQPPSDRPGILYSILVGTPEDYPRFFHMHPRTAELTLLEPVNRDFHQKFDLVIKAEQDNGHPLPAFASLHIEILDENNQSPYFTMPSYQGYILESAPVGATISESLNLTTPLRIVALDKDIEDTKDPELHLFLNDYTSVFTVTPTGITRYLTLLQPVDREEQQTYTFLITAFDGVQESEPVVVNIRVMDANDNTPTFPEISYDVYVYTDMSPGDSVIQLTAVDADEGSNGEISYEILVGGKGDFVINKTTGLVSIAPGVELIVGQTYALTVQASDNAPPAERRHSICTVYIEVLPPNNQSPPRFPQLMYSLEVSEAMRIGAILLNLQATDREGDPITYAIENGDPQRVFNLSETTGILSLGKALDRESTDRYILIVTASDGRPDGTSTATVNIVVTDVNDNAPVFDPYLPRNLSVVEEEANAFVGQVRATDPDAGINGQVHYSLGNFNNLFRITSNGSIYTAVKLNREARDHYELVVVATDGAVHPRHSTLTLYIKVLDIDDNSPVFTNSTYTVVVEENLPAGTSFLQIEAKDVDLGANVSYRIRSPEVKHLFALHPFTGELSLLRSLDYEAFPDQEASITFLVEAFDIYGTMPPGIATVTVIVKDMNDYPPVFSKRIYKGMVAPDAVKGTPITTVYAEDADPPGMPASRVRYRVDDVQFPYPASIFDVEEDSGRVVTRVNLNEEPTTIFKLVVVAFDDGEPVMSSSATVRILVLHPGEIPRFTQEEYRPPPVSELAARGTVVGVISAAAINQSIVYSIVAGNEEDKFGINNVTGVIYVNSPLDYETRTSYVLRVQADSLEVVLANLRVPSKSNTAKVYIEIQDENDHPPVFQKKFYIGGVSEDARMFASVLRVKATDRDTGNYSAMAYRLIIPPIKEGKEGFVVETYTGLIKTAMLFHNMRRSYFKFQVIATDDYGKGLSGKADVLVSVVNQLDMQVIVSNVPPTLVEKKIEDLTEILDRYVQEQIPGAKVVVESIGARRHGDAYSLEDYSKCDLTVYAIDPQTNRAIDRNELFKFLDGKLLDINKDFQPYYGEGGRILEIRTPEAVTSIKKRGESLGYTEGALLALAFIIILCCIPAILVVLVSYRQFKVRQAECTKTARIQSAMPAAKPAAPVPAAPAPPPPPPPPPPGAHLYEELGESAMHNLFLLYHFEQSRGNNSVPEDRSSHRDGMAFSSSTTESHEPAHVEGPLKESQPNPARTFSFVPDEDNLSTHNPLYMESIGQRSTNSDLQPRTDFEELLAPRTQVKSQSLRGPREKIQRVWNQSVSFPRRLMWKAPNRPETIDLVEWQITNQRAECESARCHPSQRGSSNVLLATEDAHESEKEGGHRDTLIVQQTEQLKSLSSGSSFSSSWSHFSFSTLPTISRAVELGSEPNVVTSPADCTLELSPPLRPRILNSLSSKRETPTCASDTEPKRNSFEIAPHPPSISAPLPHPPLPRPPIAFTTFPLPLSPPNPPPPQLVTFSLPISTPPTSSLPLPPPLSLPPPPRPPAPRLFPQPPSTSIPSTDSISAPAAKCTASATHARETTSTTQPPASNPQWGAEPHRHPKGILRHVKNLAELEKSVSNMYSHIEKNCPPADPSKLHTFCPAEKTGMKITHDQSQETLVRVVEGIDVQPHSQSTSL
Chain of 39G7 (Q99PJ1 27-1943): as above

Kd (8D1): 50 pM
koff (8D1): 3e-05 s⁻¹
Kd (39G7): 200 pM
koff (39G7): 2e-05 s⁻¹
B1: recombinant protocadherin-15 (PCDH15), Mus musculus, His-tagged construct co-expressed with LHFPL5 (natural protein)
chain: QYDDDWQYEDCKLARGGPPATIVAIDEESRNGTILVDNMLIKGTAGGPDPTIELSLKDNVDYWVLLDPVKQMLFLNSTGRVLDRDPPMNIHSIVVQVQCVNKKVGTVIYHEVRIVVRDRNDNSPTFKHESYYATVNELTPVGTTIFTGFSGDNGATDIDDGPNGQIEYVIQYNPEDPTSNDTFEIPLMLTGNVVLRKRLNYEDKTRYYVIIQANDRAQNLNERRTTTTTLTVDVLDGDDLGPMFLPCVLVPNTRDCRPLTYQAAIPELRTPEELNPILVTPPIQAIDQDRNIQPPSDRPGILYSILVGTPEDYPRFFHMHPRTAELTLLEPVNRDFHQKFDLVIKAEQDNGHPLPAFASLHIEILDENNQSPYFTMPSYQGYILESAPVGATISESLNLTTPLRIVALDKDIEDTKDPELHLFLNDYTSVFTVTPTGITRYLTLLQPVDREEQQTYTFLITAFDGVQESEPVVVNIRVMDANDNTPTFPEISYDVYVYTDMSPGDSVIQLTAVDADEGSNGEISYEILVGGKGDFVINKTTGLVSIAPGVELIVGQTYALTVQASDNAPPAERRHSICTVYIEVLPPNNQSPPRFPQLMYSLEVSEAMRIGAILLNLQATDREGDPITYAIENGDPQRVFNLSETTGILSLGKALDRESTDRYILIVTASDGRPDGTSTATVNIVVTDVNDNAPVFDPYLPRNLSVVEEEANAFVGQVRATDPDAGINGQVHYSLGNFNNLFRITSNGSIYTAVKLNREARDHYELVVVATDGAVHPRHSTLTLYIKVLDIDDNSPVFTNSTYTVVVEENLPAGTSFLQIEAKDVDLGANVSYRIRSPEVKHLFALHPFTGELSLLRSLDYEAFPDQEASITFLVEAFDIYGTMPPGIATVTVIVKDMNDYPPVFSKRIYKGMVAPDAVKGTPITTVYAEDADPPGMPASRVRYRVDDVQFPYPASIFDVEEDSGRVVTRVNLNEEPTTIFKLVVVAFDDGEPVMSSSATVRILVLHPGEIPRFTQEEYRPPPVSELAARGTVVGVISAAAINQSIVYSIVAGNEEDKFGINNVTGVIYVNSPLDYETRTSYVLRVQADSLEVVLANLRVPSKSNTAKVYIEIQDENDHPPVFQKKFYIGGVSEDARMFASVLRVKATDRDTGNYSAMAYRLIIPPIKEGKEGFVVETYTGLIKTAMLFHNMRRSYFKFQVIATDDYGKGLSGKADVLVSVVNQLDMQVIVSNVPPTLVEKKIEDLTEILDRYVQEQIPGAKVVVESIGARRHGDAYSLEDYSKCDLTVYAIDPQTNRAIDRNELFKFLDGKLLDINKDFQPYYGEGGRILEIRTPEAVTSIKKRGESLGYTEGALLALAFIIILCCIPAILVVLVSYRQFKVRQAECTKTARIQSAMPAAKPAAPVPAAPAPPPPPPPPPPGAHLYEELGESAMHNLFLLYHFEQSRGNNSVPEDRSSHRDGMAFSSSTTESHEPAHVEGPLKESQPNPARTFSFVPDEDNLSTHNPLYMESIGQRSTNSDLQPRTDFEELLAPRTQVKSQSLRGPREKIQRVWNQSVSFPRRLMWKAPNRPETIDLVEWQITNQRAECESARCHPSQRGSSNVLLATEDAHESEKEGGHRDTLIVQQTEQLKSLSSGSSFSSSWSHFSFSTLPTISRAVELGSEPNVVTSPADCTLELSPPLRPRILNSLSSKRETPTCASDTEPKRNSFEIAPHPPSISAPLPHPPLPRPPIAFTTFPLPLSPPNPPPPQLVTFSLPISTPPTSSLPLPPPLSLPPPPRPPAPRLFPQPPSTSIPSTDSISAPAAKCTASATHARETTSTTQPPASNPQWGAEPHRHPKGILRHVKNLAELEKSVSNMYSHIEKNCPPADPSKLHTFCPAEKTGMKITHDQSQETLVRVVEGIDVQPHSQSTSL

Kd (anti-LHFPL5): 1000 pM
koff (anti-LHFPL5): 5e-05 s⁻¹
B2: recombinant lipoma HMGIC fusion partner-like protein 5 (LHFPL5), Mus musculus, strep-tagged construct co-expressed with PCDH15 (natural protein)
chain: MVKLLPAQEAAKIYHTNYVRNSRAVGVMWGTLTICFSVLVMALFIQPYWIGDSVSTPQAGYFGLFSYCVGNVLSSELICKGGPLDFSSIPSRAFKTAMFFVALAMFLIIGSIICFSLFFVCNTATVYKICAWMQLAAATGLMIGCLVYPDGWDSSEVRRMCGEQTGKYTLGHCTIRWAFMLAILSIGDALILSFLAFVLGYRQDKLLPDDYKADGNEEV
